The values below come from patent US20120301897A1, “ACETAMINOPHEN-PROTEIN ADDUCT ASSAY DEVICE AND METHOD” (BOARD OF TRUSTEES OF THE UNIVERSITY OF ARKANSAS, priority 2008, published 2012).

For data set [1] the following is noted: human, in vivo.
Procedure: Serum samples were analyzed for acetaminophen-protein adducts (as measured by acetaminophen-cysteine or APAP-CYS) using a high-performance liquid chromatography with electrochemical detection (HPLC-EC) method. All serum samples were dialyzed, treated with protease, and then precipitated with trichloracetic acid.
The severity of liver injury was stratified by the highest recorded value for AST concentration.
The subgroups were based on the severity of toxicity defined as the highest recorded value for AST concentration for each patient over the period of hospitalization.
The conditions of data set [2]: under overdose conditions; cited from earlier work.

Consider “3-(cystein-S-yl) APAP (3-Cys-A)-protein adducts [APAP-protein adducts]”, for which the “mean (±SD) half-life of adducts in serum” value in data set [1] is 35.3 ± 7.2 h.

For the compound `CC(=O)Nc1ccc(O)cc1` [APAP, Acetaminophen], the reported elimination half-life result in data set [2] is “about 18 hours”.
